# Assay results reported in patent US20040137581A1 (Xencor, published 2004).
# Numbering of substitutions follows the chain as printed.
# T1: type I interferon receptor (UniProt P17181 28-557; P48551 27-515, limits assumed)
# T1 sequence (looked up) 1: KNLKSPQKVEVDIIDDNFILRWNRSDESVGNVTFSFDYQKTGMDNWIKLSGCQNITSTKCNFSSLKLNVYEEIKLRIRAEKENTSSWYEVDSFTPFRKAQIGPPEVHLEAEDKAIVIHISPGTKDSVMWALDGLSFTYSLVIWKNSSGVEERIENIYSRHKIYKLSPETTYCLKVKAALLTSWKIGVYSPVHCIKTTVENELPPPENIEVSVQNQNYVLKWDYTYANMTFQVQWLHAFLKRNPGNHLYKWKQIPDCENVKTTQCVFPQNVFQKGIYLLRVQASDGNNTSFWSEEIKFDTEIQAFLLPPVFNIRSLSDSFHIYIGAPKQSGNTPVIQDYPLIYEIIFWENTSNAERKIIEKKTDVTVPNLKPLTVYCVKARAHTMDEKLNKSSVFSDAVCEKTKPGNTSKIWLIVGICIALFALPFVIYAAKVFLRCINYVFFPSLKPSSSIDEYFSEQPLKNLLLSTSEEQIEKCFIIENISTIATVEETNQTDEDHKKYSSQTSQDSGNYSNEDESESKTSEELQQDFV
# T1 sequence (looked up) 2: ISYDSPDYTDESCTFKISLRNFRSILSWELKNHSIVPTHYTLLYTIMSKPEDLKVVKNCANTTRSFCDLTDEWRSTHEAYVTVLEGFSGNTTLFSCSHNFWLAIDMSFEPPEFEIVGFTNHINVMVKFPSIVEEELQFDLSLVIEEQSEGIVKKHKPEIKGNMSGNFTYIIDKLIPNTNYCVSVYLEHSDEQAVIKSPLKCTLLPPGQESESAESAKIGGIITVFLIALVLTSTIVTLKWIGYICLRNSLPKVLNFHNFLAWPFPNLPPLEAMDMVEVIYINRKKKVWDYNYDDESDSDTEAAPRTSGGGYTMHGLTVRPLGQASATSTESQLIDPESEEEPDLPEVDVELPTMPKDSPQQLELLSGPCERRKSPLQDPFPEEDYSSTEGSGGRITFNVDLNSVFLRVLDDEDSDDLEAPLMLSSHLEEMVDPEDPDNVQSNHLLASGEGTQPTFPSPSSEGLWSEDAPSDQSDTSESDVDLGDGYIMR
# B1: IFN1_1 (ligand)
# chain: MGSSHHHHHHSSGLVPRGSHMSYNLLGFLQRSSNFQSQKLLWQLNGRLEYCLKDRMNFDIPEEIKQLQQFQKEDAALTIYEMLQNIFAIFRQDSSSTGWNETIVENLLANVYHQINHLKTVLEEKLEKEDFTRGKLMSSLHLKRYYGRILHYLKAKEYSHCAWTIVRVEILRNFYFINRLTGYLRN
# B2: IFB1_7 (ligand)
# chain: B1 chain with L25Q, F28E
# B3: IFB_GM2 (ligand)
# chain: B1 chain with L67S, F70S, L126S, F131S, L136S, L140S
# B4: IFB1_64 (ligand)
# chain: B1 chain with L25Q, F28E, L67K, F131N, L136E, L140R
# B5: IFB1_23 (ligand)
# chain: B1 chain with L25Q, F28E, L136E
# B6: IFB1_36 (ligand)
# chain: B1 chain with F28E, F131N, L136E
# B7: IFB1_39 (ligand)
# chain: B1 chain with L25Q, F28E, F131N, L136E
# B8: IFB1_15 (ligand)
# chain: B1 chain with L25Q, F28E, F131N
# B9: IFB1_2 (ligand)
# chain: B1 chain with L25Q
# Molecular target: T1, type I interferon receptor
# Test: cell-based or functional assay
"EC50, ISRE-luciferase reporter assay in 293T cells","EC50 wt/EC50 var, ISRE-luciferase reporter assay in 293T cells",Binder
1.9 ng/mL,1 ratio,B1
0.074 ng/mL,25.7 ratio,B2
130 ng/mL,0.015 ratio,B3

# Molecular target: T1, type I interferon receptor
# Test: cell-based or functional assay
# Remark: another data set of the same source
"EC50, ISRE-luciferase reporter assay in 293T cells","EC50 wt/EC50 var, ISRE-luciferase reporter assay in 293T cells",Binder
5.31 ng/mL,1 ratio,B1
0.24 log ng/ml,22.1 ratio,B4
0.277 log ng/ml,19.2 ratio,B5
0.179 log ng/ml,29.6 ratio,B2
0.294 log ng/ml,18 ratio,B6
0.193 log ng/ml,27.5 ratio,B7
0.319 log ng/ml,16.6 ratio,B8
0.428 log ng/ml,12.4 ratio,B9
